Values quoted from earlier work in PMC5663392.
pKd: −log10 of the molar value.

Molecular target: FANCL RING (Homo sapiens) (UniProt Q9NW38)
Chain of UniProt Q9NW38 (Q9NW38 304-366): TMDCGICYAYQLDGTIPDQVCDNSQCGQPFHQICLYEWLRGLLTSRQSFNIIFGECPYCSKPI

pKd: 6.30
Substance: Ube2T (from UniProt Q9NPD8)
